Molecular target: T1, human MacroD2 macrodomain (aa 7–243), wild type (human, UniProt A1Z1Q3 7-243)
T1 sequence (looked up): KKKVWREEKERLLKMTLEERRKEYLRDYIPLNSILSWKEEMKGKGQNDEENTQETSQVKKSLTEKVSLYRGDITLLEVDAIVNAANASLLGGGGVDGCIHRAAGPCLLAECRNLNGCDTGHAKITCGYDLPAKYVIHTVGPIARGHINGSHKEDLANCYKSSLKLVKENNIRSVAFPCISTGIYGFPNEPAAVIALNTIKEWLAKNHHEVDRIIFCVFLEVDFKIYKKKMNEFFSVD
Assay: pull-down

binding result: binds
B1: GST-PARP10 catalytic domain (aa 818–1025), ADP-ribosylated (domain or fragment, UniProt Q53GL7 818-1025, looked up)
chain: NNLERLAENTGEFQEVVRAFYDTLDAARSSIRVVRVERVSHPLLQQQYELYRERLLQRCERRPVEQVLYHGTTAPAVPDICAHGFNRSFCGRNATVYGKGVYFARRASLSVQDRYSPPNADGHKAVFVARVLTGDYGQGRRGLRAPPLRGPGHVLLRYDSAVDCICQPSIFVIFHDTQALPTHLITCEHVPRASPDDPSGLPGRSPDT
modifications: mono-ADP-ribosylated (automodified; single ADPr units on glutamate residues); sites not stated
